Laboratory results from the nanobody polyreactivity screen of Harvey et al. (2022).

Assay: yeast display, Sf9 membrane polyspecificity reagent, FACS + sequencing; frameworks hold sequencing errors
How it was run: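 A nanobody's polyreactivity label depends on the gate it was sorted from. Yeast display cells were stained with 10% biotinylated, detergent-solubilized Sf9 membrane reagent for 1 hour at 4 °C, enriched on streptavidin microbeads and sorted by FACS. The low and high (top ~1%) gates were set on anti-HA fluorescence for expression and streptavidin fluorescence for reagent binding.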

Row | Sequence | polyreactivity (PSR sort gate)
1 | QVQLVESGGGLVQAGGSLRLSCAASGSTIDYYAMGWYRQAPGKERELVAGIDSAGSTNYADSVKGRFTISRDNAKNTFYLQMNSLKTGRYRGLYCNVGKTITTYAFTTFDYWGQGTHVTVSS | low polyreactivity
2 | QVQLVESGGGLVQAGGSLRLSCAASGIIFPFYAMGWYRKAPGKERELVAAITSDGNTNYADSVKGRFTISRDNAKNTVYLQMNSLKPEDTAVYYCNAETQYGVLSWHSTRHEYWGQGTQVTVSS | low polyreactivity
3 | QVQLVESGGGLVQAGGSLRLSCAASGSIFVANAMGWYRQAPGKERELVAAISGSGDRTRYADSVKGRFTISRDNAKNTVYLQMNSLKPEDTAVYYCNARYYASGNLYNYWGQGTQVTVSS | high polyreactivity
4 | QVQLVQSGGGLVQAGGSLRVSCAPSGRIYAMGWSRQAPGKERELVARITKSGTSTYYADSVKGRFTISRDNAKNTVYLQMNSMKPEDTAVYYCATATFYRSVLYGYWGQGTQVTVSS | high polyreactivity
5 | QVQLVESGGGLVQAGGSLRLICAASGYTFYYAMGWYRQAPGKERELVAAISAGGGRTYYADSVKGRFTISRDNAKITVYLQMNSLKPEDTAVYYCNRVYRLTAYGYDYWGQGTQVTVSS | high polyreactivity
6 | QVQLVDSGGGLVQAGGSLRLSCAASGFIFDLYAMGWYRQAPGKERELVAAITTSGGTTYYADSVKGRFTISRDNAKNTVYLQMNSLIPEDTAVYFCAARRYSWYYYWGQGTQVTVSS | high polyreactivity
7 | QDQPVDSGRCLVQAGGSLRLSCAASGSTFEVYTMGWYRQAPGQERELVAAITKNGGTTYYADSVKGRFTISRDNAKNTVYLLMNSLKPEDTAVYYCAATWPRYGYGYWGQGTQVTVSS | low polyreactivity
8 | QVQLVESGGGLVQAGGSLRLSCAASGSTLYNNAMGWYRQAPGKERELVAAITRRGGSTYYADSVKGRFTISRDNAKNTVYLQMNSLNPEDTAVYFCAADDSRYASGQFQEEYDYWGLGTQVTVSS | low polyreactivity
9 | QVQLVESGGGLVQAGGSLRLSCAASGFTFKGYAMGWYRQAPGKERELVAGITSGGRTYYADSVKGRFTISRDNAKNTVYLQMNSLKPEDTAVYYCAAVHYVAYYGYDYWGQGSQVTVSS | high polyreactivity
10 | QVQLVESGGGLVQAGGSLRLSCAASGFIFSKYTMGWYRQAPGKETELVAAISSGGRTYYADSVKGRFTISRDNAKNTVYLQMNSLKPEDTAVYYCAVRGYIASQQAAGGGRNYYYWGQGTQVNVSS | high polyreactivity
11 | QVQLEESGGGLVQAGGSLRLSCAASVSTFRLYVMGGYRQAPGKERQLVAAIDWSGGSTYYADSVKGRFTISRDNAKNTVYLQMNSLKPEDTAVYYCAADYSVASPDGPDVIYDYWGQGTQVTVSS | low polyreactivity
12 | QVQLVESGGGLVQAGGSLRLSCAASGIIFPYYAMGWYREAPGIERELVAGLDSSGSSTNYADSVKGRFTISRDTAKTTVYLQITSLQPEDTAVYYCAKVTSSGDAVLTQIPYGYDYWGQGTQVTVSS | low polyreactivity
13 | QVQLVESGGGLVQAGGSLRLSCAASGFIFSYYAMGWYRQAPGKERELVAAITWDGGSTYYADSVKGRFTISRDNAKNTVYLQMNSLKPEDTAVYYCNAYYYYRRPLEGGYWGQGTQVTVSS | low polyreactivity
14 | QVQLVESGGGLVQAGGSLRLSCAASGSTFAYYAMGWYRQAPGKERELVAAISRTGGSTYYADSVKGRFTISRDNAKNTVYLQMNSLKPEDTAVYYCNARAPVGTFDYDYWGQGTQVTVSS | low polyreactivity
15 | QVQHVESGGGLLQAGGSLRLSCAASGMGWYRQAPGKERELVAVIRWSSGSTYYADSVKGRFTISRDNAKNTVYLQMNSLKPDDTAVYYCNARDQYYGDPSSQPDTRSRSDYWGQGTQVTVSS | low polyreactivity
16 | QVQLVESGGGLVQAGGSLRLSCAASGFTFPWNVMGWYRQAPGKERELVAAITYDGGGTYADSVKGRFTISRDNAKNTVYLQMNSLKPEDTEVYFCNADLIYGEVYDYWGQGTQVTVSS | low polyreactivity

Row | Sequence | polyreactivity (PSR sort gate)
17 | QVQLVESGRGLVQAGGSLRLSCAASGRIFRVNAMGWYRQAPGKERELVAAISWGGGSTYYADSVKGRFTISRDNAKNTVYLQMNSLKREDTAVYYCATTLVKSQSRYYYWGQGTQVTVSS | high polyreactivity
18 | QVQLVESGGGLVQAGGSLRLSCAASGFTFGIYAMGRYRQAPGKERELVAAISRSGGSTYYADSVKGRFTISRDNAKNTVYLQMNSLKPEDTAVYYCNTRWGYARGGRYGYWGQGTQVTVSS | high polyreactivity
19 | QVQLVESGGGLVQAGGSLRLSCAASGSTFRHYAMGWYRQAPGKERELVAAISYSGSRTYYADSVKGRFTISRDNAKNTVYLQMNSLKPEDTAVYYCNVNLQGRYSDKYDYWGQGTQVTVSS | high polyreactivity
20 | QVQLVESGGGLVQAGGSLRFSCAASGSTFHRYVMGWYRQAPGKERELVADINSTGGSTYYADSVKGRFTISRDNAKNTVYLQMNSLKPEDTAVYYCARVTRRGPGFSTLYSRYDYWGQGTQVNVSS | low polyreactivity
21 | QVQLVESGGGLVQAGGSLRLNCAASGSILYLNAMGWYRQAPGKERELLAAITWSGGSTSYADSVKGRFTISRDYAKNTVSLQMNSLKPEDTAVYYCSAVRRGYGGVYYAGGYWGQGTQVTVSW | low polyreactivity
22 | QVQLVESGGGLVQAGGSLRLSCAASGSIFSSYVMGWYRQAPGKERELVAAISRSGGSTYYADSVKGRFTISRDNAKNTVYLQMNSRKPEDTAFYYCAADWTRGSPGMDYWGQGTQVTVSS | high polyreactivity
23 | QVQLVESGGGLVQAGGSLRLSCAASGRIFPYYAMGWYRQAPGKEREFVAAITSSGGTTYYADSVKGRFTISRDNAKNTVYLQMNSLKPEDTAVYYCFAVRLYALYAGRPYDYWGQGTQVTVSS | low polyreactivity
24 | QVQLVESVGGLVQAGGSLRLSCADSGSTFYFNAMGWYRQAPGKEREFVAAIEWSGGSTYYADSVKGRFTISRDNAKNTVYLQMNSLKPEDTAVYYCAAPYHYYGNSVGYADYDYWGQGTQVTVSS | low polyreactivity
25 | QVQLLESGGGLVQAGGSLRLSCAASGRTFRVYARGWYRQAPGKEREFVATISVRGGSTYYAYSVKGRFTISRDNAKITVYLQMNSLKPVDTAVYYCARSSRGNLDYWGQGTQVSVSS | low polyreactivity
26 | QVQLVESGGGLVQAGVRLRLSCAASGFTFAGTAMGWYRQAPGKERELVAAITSGGSTYYADSVKGRFTISRDNAKNTVYLQMNSLKPEDTAVYYCAALVFRGRSFTHDYWGQGTQVTLSS | high polyreactivity
27 | QVQLVESGGGLVQAGGSLRLSCAASGSTFVTYAKGWYRQAPGKERELVAAITSGGSTNYADSVKGRFTISRDNAKNTVYLQMNCLKPEDTEVYYCAARYYGAYGKQPRARYGYWGQGTQVTVSS | high polyreactivity
28 | QVQLVESGGGLVQAGGSLRLSCAASGFTFGLYAMGWYRQAPGKERELVAAISWSGDNTYYADSVKGRFTISRDNAKNTVYLQMNSLKPEDTAVYYCAKVTKRNQGYYYWGQGTQVTVSS | high polyreactivity
29 | QVQLVESGGGLVQAGGSLRLSCAASGFTVTWYAMAWYRQAPGKERELVASISRSGGSTYYADSVKGRFTISRDNAKNTVSLQMISLKPEDSAVYYCAAVSRTRSYDYWRQGTQVTVSS | high polyreactivity
30 | QVQLEESGGCLVQAGGSLRLSCAASGIIFWDNALGWYRQAPGKERELVASINYSGGSTYYADSVKGRFTNSRDNAKNTVYLQMNSLKPEDTAVYYCAARTVTLDDWDYAYDYWVQGTQVTVSS | low polyreactivity
31 | QVQLVESGGGLVQAGGSLRLSCAASGSTFGLYAMGWYRQAPGKERELVAAISSGGSTYYADSVKGRFTISRDNAKNTVYLQMNSLKPEDTAVYYCATGYWAYTIEYYYWGQGTQVTVSS | low polyreactivity
